Experimental data as given in the supplement of paper PMC9170038.

Tested on: K4 kissing-loop RNA reporter
Assay: apparent KD of K4 kissing-loop reporter; higher = weaker reporter binding
Conditions: Eterna round: R107
Experimental: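 RNA-MaP round R107: designed RNA switches with theophylline, tryptophan, arginine or FMN aptamers are transcribed on-chip within common flanks. They are titrated with a labelled K4 kissing-loop RNA reporter in RNA-MaP buffer (100 mM Tris pH 7.5, 80 mM KCl, 4 mM MgCl2), without ligand or with the indicated ligand. Median apparent KD per design.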

[1] = input ligand: theophylline 20 uM
[2] = input ligand: tryptophan 2.4 mM
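Further: bound reporter read as fluorescence of individual clusters on recovered sequencing chips by microscopy, with normalized cluster intensities fitted with a binding model.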

Sequence: AAAACGCUGGAUGAAUAACAUCUAGCGAAUCGAGGACCGGUACGGCCGCCACUCGGAGCUAAACUGCGAGUGAUGUUCGUAAAAU [Mat - Mod of OpenEnded 3 - D18]
- apparent KD of K4 kissing-loop reporter (input ligand: FMN 200 uM): 0.405 µM
- apparent KD of K4 kissing-loop reporter (input ligand: arginine 13.2 mM): 0.223 µM
- apparent KD of K4 kissing-loop reporter (input ligand: none): 0.588 µM
- apparent KD of K4 kissing-loop reporter [1]: 0.426 µM
- apparent KD of K4 kissing-loop reporter [2]: 0.428 µM

Sequence: AAAAGCCUACAGGAUACCAGCCGAAUACUAAAAGGCUGGAGUGAUGUUCCAGCUUGCCGCGGCCCUUGGCAGCCUAGCUGGGUGA [Soatriti]
- apparent KD of K4 kissing-loop reporter (input ligand: FMN 200 uM): 0.248 µM
- apparent KD of K4 kissing-loop reporter (input ligand: arginine 13.2 mM): 0.258 µM
- apparent KD of K4 kissing-loop reporter (input ligand: none): 0.507 µM
- apparent KD of K4 kissing-loop reporter [1]: 0.341 µM
- apparent KD of K4 kissing-loop reporter [2]: 0.286 µM

Sequence: AAAAUAAACCAGUGAUGUUGGUAACCAGAUACCAGCGACGAAAGUCGCCCUUGGCAGCUGUGGACGUACAAAAUAAGUACGUCCU
- apparent KD of K4 kissing-loop reporter (input ligand: FMN 200 uM): 0.218 µM
- apparent KD of K4 kissing-loop reporter (input ligand: arginine 13.2 mM): 0.264 µM
- apparent KD of K4 kissing-loop reporter (input ligand: none): 0.257 µM
- apparent KD of K4 kissing-loop reporter [1]: 0.223 µM
- apparent KD of K4 kissing-loop reporter [2]: 0.199 µM

Sequence: AAAAUAAACCAGUGAUGUUGGUAUCCGGAUACCAGCGAUAAUCAUCGCCCUUGGCAGCCGCGGACGUACAAAAUAAGUACGUCCU [MatMod 14 - Jieux - Same State - Theophylline A]
- apparent KD of K4 kissing-loop reporter (input ligand: FMN 200 uM): 0.208 µM
- apparent KD of K4 kissing-loop reporter (input ligand: arginine 13.2 mM): 0.135 µM
- apparent KD of K4 kissing-loop reporter (input ligand: none): 0.175 µM
- apparent KD of K4 kissing-loop reporter [1]: 0.268 µM
- apparent KD of K4 kissing-loop reporter [2]: 0.182 µM

Sequence: AAAAUAAAGCAGUGAUGUUGCAUAUGAGAAGGAGCGCACGAAAGUGCAGGUAGGUCGCUCAGCCAAGUGGACGAAAACGUCCACA [#OpenEnded 9 #K4Early]
- apparent KD of K4 kissing-loop reporter (input ligand: FMN 200 uM): 0.107 µM
- apparent KD of K4 kissing-loop reporter (input ligand: arginine 13.2 mM): 0.172 µM
- apparent KD of K4 kissing-loop reporter (input ligand: none): 0.119 µM
- apparent KD of K4 kissing-loop reporter [1]: 0.168 µM
- apparent KD of K4 kissing-loop reporter [2]: 0.0937 µM

Sequence: AAAAUAAAUCAGUGAUGUUGGUAUCCGGAUACCAGCGAUAAUCAUCGCCCUUGGCAGCCGUGGACGUACAAAAUAAGUACGUCCU [MatMod 16 - Jieux - Same State - Theophylline A]
- apparent KD of K4 kissing-loop reporter (input ligand: FMN 200 uM): 0.137 µM
- apparent KD of K4 kissing-loop reporter (input ligand: arginine 13.2 mM): 0.104 µM
- apparent KD of K4 kissing-loop reporter (input ligand: none): 0.168 µM
- apparent KD of K4 kissing-loop reporter [1]: 0.171 µM
- apparent KD of K4 kissing-loop reporter [2]: 0.183 µM

Sequence: AAAAUAACCCAGUGAUGUUGGUCUCCAGAUACCAGCGACGAAAGUCGCCCUUGGCAGCUGUGGACGUACAAAAUAAGUACGUCCU
- apparent KD of K4 kissing-loop reporter (input ligand: FMN 200 uM): 0.661 µM
- apparent KD of K4 kissing-loop reporter (input ligand: arginine 13.2 mM): 0.629 µM
- apparent KD of K4 kissing-loop reporter (input ligand: none): 0.776 µM
- apparent KD of K4 kissing-loop reporter [1]: 0.485 µM
- apparent KD of K4 kissing-loop reporter [2]: 0.558 µM

Sequence: AAAAUAAUCCAGUGAUGUUGGUCUCCAGAUACCAGCGACGAAAGUCGCCCUUGGCAGCUGUGGACGUACAAAAUAAGUACGUCCU
- apparent KD of K4 kissing-loop reporter (input ligand: FMN 200 uM): 0.366 µM
- apparent KD of K4 kissing-loop reporter (input ligand: arginine 13.2 mM): 0.416 µM
- apparent KD of K4 kissing-loop reporter (input ligand: none): 0.464 µM
- apparent KD of K4 kissing-loop reporter [1]: 0.345 µM
- apparent KD of K4 kissing-loop reporter [2]: 0.314 µM

Sequence: AAACAUUGGUCGGAUACCAGCUGAUCGGAAACGAUCUUGCUGGAGUGAUGUUCCAAGUAAAGCCCUUGGCAGCCGACCGAUGAAA [MAT - Same State Theophlline B - Mod of Eli - D20]
- apparent KD of K4 kissing-loop reporter (input ligand: FMN 200 uM): 0.14 µM
- apparent KD of K4 kissing-loop reporter (input ligand: arginine 13.2 mM): 0.0504 µM
- apparent KD of K4 kissing-loop reporter (input ligand: none): 0.0632 µM
- apparent KD of K4 kissing-loop reporter [1]: 0.135 µM
- apparent KD of K4 kissing-loop reporter [2]: 0.0858 µM

Sequence: AAACCAAUCAGAGGAUAUUCUUUAUUCGACAUAACCUUCUAUAAGGUGCAGUGAUGUUGCAAUAUAGGAGAAGGCUGAUUGACAA [Exclusion FMN B Gf 13]
- apparent KD of K4 kissing-loop reporter (input ligand: FMN 200 uM): 0.232 µM
- apparent KD of K4 kissing-loop reporter (input ligand: arginine 13.2 mM): 0.338 µM
- apparent KD of K4 kissing-loop reporter (input ligand: none): 0.516 µM
- apparent KD of K4 kissing-loop reporter [1]: 0.488 µM
- apparent KD of K4 kissing-loop reporter [2]: 0.413 µM
